The target of one data set is Tyr16 (position 16, …-). As to the kind of experiment: potentiometry. The note with it: 298 K; 0.1 M NaClO4; none (4 mM HClO4, 0.5 mM peptide); free peptide, no metal.
For data set [1], the target named is Lys4 (position 4, --VERKEG---). As to the kind of experiment: potentiometry. The note with it: 298 K, 0.1 M NaClO4.

Usually pKa stands for the negative logarithm of the acid dissociation constant.

With IMRGEATPFVMELPVYHVPH [L1, peptide model of the Core CFeoB region of FeoB (residues 477-496) (Escherichia coli K12)], the pKa with Tyr16 (position 16, …-) was 9.67.
In the case of VERKEG, the pKa is 9.92 in data set [1] (none (4 mM HClO4, 0.5 mM peptide), free peptide, no metal) and 9.87 in data set [1] (none (4 mM HClO4, 0.5 mM peptide, Mohr's salt as Fe(II) source), Fe(II) present, Fe(II):L = 1:1.1, step [FeLH-3]2- to [FeLH-4]3- of the 1:1 Fe(II):L2 complex).

Values taken from paper PMC11920956.
